Target: wild-type Savinase (Bacillus lentus protease of SEQ ID NO: 3) (Bacillus lentus) (UniProt P41362)
Test: cell-based or functional assay

UniProt P41362, sequence (P41362 28-380, tags left off): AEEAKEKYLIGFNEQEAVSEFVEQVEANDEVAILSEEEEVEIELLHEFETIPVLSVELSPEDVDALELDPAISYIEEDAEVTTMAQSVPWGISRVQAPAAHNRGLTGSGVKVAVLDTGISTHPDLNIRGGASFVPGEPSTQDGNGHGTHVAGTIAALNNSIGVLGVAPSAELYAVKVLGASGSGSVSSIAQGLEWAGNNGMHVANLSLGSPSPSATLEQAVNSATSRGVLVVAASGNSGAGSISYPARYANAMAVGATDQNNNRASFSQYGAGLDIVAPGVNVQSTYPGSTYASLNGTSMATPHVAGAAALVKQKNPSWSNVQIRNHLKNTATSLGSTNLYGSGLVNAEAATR

Substance: ovoinhibitor isolated from hen egg white (from UniProt P10184 69-517)
- amount of released amplicon A (qPCR of DNA released from alpha-casein-coated microspheres by the expressed protease), compared to the amount released in the absence of ovoinhibitor: 68%
